Values of other authors as cited in article PMC6281825.

Target: Complement C5 (Homo sapiens) (UniProt P01031)

Q: With eculizumab as the substance, how does the Kd read?
A: Its Kd is 0.1 nM.
